# What was measured:
# [1] = molecular target: N- and C-terminally tagged APC protein (cell-free expressed, Example 45) (UniProt P25054)
# [2] = test system: N- and C-terminally tagged MDM (cell-free expressed)
# [3] = test system: N- and C-terminally tagged PKA (cell-free expressed)
# UniProt P25054, sequence (P25054 1098-1696): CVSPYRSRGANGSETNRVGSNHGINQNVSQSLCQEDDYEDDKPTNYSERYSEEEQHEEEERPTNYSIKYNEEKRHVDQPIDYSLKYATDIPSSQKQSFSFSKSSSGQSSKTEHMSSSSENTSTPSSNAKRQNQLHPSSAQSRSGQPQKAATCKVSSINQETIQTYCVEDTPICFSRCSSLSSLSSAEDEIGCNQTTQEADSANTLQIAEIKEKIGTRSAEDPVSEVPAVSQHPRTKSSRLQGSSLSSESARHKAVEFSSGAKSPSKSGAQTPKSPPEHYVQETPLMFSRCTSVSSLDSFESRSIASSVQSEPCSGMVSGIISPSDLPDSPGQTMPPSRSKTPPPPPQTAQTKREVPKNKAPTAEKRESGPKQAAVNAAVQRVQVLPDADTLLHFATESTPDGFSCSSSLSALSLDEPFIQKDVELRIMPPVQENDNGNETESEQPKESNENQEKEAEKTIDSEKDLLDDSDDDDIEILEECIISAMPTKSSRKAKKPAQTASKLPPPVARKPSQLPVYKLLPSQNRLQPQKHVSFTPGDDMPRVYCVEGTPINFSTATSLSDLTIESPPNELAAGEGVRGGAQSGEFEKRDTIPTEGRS
substance,measurement,setting,value
Caspase-3,protease substrate degradation monitored by ELISA,[1],degraded ... in a time-dependent manner
same,protease substrate degradation monitored by ELISA,[2],degraded ... in a time-dependent manner
same,protease substrate degradation monitored by ELISA,[3],unaffected
